According to PMC4776142, “Comparative evaluation of p5+14 with SAP and peptide p5 by dual-energy SPECT imaging of mice with AA amyloidosis” (Scientific Reports, 2016):

Columns and labels:
[1] = test system: amyloid-free organs of WT mice; assay: Dual-energy tissue biodistribution in amyloid-free WT mice; format: in vivo, mouse; conditions: n = 5, SAP 24 h and p5+14 4 h post injection
Description: (§1) Dual-energy comparative uptake experiments were performed in individual AA mice (5 wk post amyloid induction with AEF) and wild type mice (n = 5 per group). All SPECT/CT imaging was performed using an Inveon trimodality SPECT/PET/CT platform[37] (Siemens preclinical, Knoxville, TN). Image data were acquired and reconstructed using Inveon Acquisition Workplace (IAW) ver. 2.0.
For the comparison of ^125I-SAP and ^99mTc-p5+14, mice were administered ^125I-SAP (45 μCi, 8 μg) and 20 h thereafter received ^99mTc-p5+14 (110 μCi, 5 μg). Mice were euthanised 4 h after injection of the ^99mTc-p5+14. The image data for the low and high energy radionuclides were obtained sequentially by acquiring 60, 16-second projections in a total of 1.5 revolutions. […]
For comparison of the p5+14 and p5 peptides, mice were injected IV in the lateral tail vein with a mixture of ^125I-p5+14 (150 μCi, ~3 μg) and ^99mTc-p5 (300 μCi, ~8 μg) and the mice euthanised by an overdose of isoflurane anaesthetic 1 h post injection. […] The radioactivity in the low and high energy windows (^125I and ^99mTc, respectively) was measured using an automated Wizard 3 gamma counter (1480 Wallac Gamma Counter, Perkin Elmer) with a crossover correction from the high to low energy channel of 4.6%, applied manually. Biodistribution data were expressed as percent injected dose per gram (%ID/g) of tissue.

[2] = target: T1, AA amyloid in H2/IL-6 mice (Mus musculus, UniProt P05367); assay: Dual-energy tissue biodistribution of 125I-SAP and 99mTc-p5+14 in AA mice; format: in vivo
T1 construct: Systemic distribution of AA amyloid in H2/IL-6 mice; from tissue; host or cells: organs of living H2/IL-6 Balb/c mice after induction with amyloid enhancing factor
T1 sequence (P05367 20-94 limits assumed): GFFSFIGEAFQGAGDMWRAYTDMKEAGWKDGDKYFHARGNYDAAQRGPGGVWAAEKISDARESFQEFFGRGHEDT
Description: Transgenic H2-L^d-huIL-6 Balb/c mice (H2/IL-6) constitutively express the human IL-6 transgene leading to chronic, severe inflammation and the overproduction of acute phase reactants, such as serum amyloid protein A, the precursor protein of systemic, inflammation-associated (AA) amyloidosis. Amyloid deposition was induced in 8–wk old female mice by IV injection of 100 μg of amyloid enhancing factor (AEF – an insoluble preparation of amyloid fibrils isolated from the spleen of mice with AA amyloidosis) suspended in sterile phosphate buffered saline (PBS)[34]. All animal procedures were performed in accordance with protocols approved by the University of Tennessee Animal Care and Use Committee. The University of Tennessee is an Association for Assessment and Accreditation of Laboratory Animal Care International (AAALAC-I) accredited institution.
as §1
For the comparison of ^125I-SAP and ^99mTc-p5+14, mice were administered ^125I-SAP (45 μCi, 8 μg) and 20 h thereafter received ^99mTc-p5+14 (110 μCi, 5 μg). Mice were euthanised 4 h after injection of the ^99mTc-p5+14. The image data for the low and high energy radionuclides were obtained sequentially by acquiring 60, 16-second projections in a total of 1.5 revolutions. A 1 mm-diameter aperture, five-pinhole (mouse whole body) collimator was used at 30 mm from the centre of the field of view. The image data in the appropriate energy window were reconstructed using a Maximum A Priori algorithm (MAP - 16 iterations, 6 subsets, β = 1) onto a matrix with x and y dimensions of 88 and z dimension of 312 and 0.5-mm isotropic voxels. Post hoc attenuation correction was then applied to reconstructed data using CT image data. Scatter correction was performed using a SPECT triple energy window (TEW) method.
For comparison of the p5+14 and p5 peptides, mice were injected IV in the lateral tail vein with a mixture of ^125I-p5+14 (150 μCi, ~3 μg) and ^99mTc-p5 (300 μCi, ~8 μg) and the mice euthanised by an overdose of isoflurane anaesthetic 1 h post injection. Tissues were harvested at necropsy for biodistribution measurements. Organs were also harvested from mice injected with ^125I-SAP and ^99mTc-p5+14 after SPECT/CT imaging. A small volume of tissue from each mouse was placed into a tared plastic vial and weighed. The radioactivity in the low and high energy windows (^125I and ^99mTc, respectively) was measured using an automated Wizard 3 gamma counter (1480 Wallac Gamma Counter, Perkin Elmer) with a crossover correction from the high to low energy channel of 4.6%, applied manually. Biodistribution data were expressed as percent injected dose per gram (%ID/g) of tissue.
Skewness and kurtosis statistics were used to assess the statistical assumption of normality for between-subjects comparisons and correlations. Any skewness or kurtosis statistic above an absolute value of 2.0 assumed a non-normal distribution. The assumption of homogeneity of variance was tested with Levene’s Test of Equality of Variances. Independent samples t-tests were used to compare p5+14 and SAP retention in amyloid laden organs (liver, spleen, pancreas, intestines and heart). Means and standard deviations were reported for the analyses. If a statistical assumption was violated, a non-parametric Mann-Whitney U test was used. Medians and interquartile ranges (IQR) were reported for non-parametric statistics. Pearson correlations were run to compare tissue biodistribution data (%ID/g) in all organs. […]

[3] = AA mice 5 wk post-AEF, n = 5, 125I-SAP 45 μCi, 8 μg, 24 h post injection, crossover-corrected

## 125I-SAP: purified human SAP radioiodinated with 125I
[1]
  Retention in amyloid-free organs: no retention
[2]; [3]
  Tissue biodistribution, heart, Mean ± SD: 0.7 ± 0.1 %ID/g
  Tissue biodistribution, intestine, Mean ± SD: 0.8 ± 1.1 %ID/g
  Tissue biodistribution, liver, Mean ± SD: 14.1 ± 3.5 %ID/g
  Tissue biodistribution, pancreas, Median (Interquartile range): 0.7 (0.5)[3] %ID/g
  Tissue biodistribution, spleen, Mean ± SD: 23.8 ± 3.5 %ID/g
[2]; AA mice, in each mouse studied, p < 0.001
  Uptake in the spleen as compared to 99mTc-p5+14: ~ 4 fold
[2]; AA mice, 125I-SAP, 24 h post injection
  Uptake by pancreatic AA amyloid: < 1 %ID/g
